This is an account of results in the DeepSol protein solubility set.

This data set is described as follows: soluble on expression in E. coli; label from the status in PepcDB or PDB records.
Take “MSTNEITKRLPNLTSRRALLLYSLPVLVAIGVSHSLKESSLTKTIALNLPESQVVERILDATTAEVVTPPNFEYQIQAGDNLSTIFSQLGFGYSSLMKVMETDLNYLALDTLKPGNTLRFWRNDATGELEKMELQFSIADKVVYQLNSDGGYDFTDISIPGVWRQEPLVGVIQGSFSSSANRLGLSSAEISQVVSLLKEQVNFGRDLRAGDRFEVVRRSQTINGVSTGKNEIEAIKIYNRGREITAYLHTDGQFYNAKGESLQRAFQRYPVSRSWRISSGFNPNRLHPVTGRVAP”: the “soluble on expression in E. coli” value is “not soluble”.

For the sequence “MSTNYEAIIIGAGQAGLAAAHELSRRGFTPGKDFLVLDSNDGPGGAWRHRWDSLTLGKAHGIADLPGLPMNRPDPKTPASTLVAGYYGAYENEFSFAVVRPVKVSRVEPTSEDPSSPLRVSSDDGREWITRMVLNATGTWTNPYVPYIPGIDKFQGKQLHTVNYRKAEDFKGKKVLVVGGGLSAVQFLLELEGLAETTWATRRPPNFTQREFDAGWGIAVERAVRERTFNGKAPASVVRTTGIPQIPDYLAGVDRGLIVSRGMFEEITPTGVVFGEPPAERSEGLGPSAGTTLAVPESWKPYPAGTHLDVDVIFWNTGFRAALRHLAPMKLRGQGRGIELIDEVSPASDARVLLVGYGSTASTVGATRAGRVAGRVAAKRLLVDVSPHVNLEHHHHHH”, the “soluble on expression in E. coli” value was “not soluble”.

With “MSTPSHLNAQPLVWGHGPRTFEVFLEPTCPYSVRAFNKLDDLLDEVGADNVTIKIRLQSQPWHLFSGVIVRCILAASTLPHGREQAHKVMQAVADHREEFEFTDHCSGPNMNATPQQIIERIERYSHVLLGAAFARPELQDVIKWHSKYARQNGIHVSPTFMVNGLVQPDLGSGDDVSVWAARIMA”, the “soluble on expression in E. coli” value is given as “not soluble”.

In the case of “MSTPYVSVIGKITGIHKKEYESDGTTKSVYQGYIEDDTARIRISSFGKQLQDSDVVRIDNARVAQFNGYLSLSVGDSSRIESVNVNIPLEHHHHHH”, the “soluble on expression in E. coli” value is on record as “not soluble”.

Turning to “MSTQYETQGYTINNAGRRLVVDPITRIEGHMRCEVNINDQNVITNAVSCGTMFRGLEIILQGRDPRDAWAFVERICGVCTGVHALASVYAIEDAIGIKVPDNANIIRNIMLATLWCHDHLVHFYQLAGMDWIDVLDALKADPRKTSELAQSLSSWPKSSPGYFFDVQNRLKKFVEGGQLGIFRNGYWGHPQYKLPPEANLMGFAHYLEALDFQREIVKIHAVFGGKNPHPNWIVGGMPCAINIDESGAVGAVNMERLNLVQSIITRTADFINNVMIPDALAIGQFNKPWSEIGTGLSDKCVLSYGAFPDIANDFGEKSLLMPGGAVINGDFNNVLPVDLVDPQQVQEFVDHAWYRYPNDQVGRHPFDGITDPWYNPGDVKGSDTNIQQLNEQERYSWIKAPRWRGNAMEVGPLARTLIAYHKGDAATVESVDRMMSALNLPLSGIQSTLGRILCRAHEAQWAAGKLQYFFNKLMTNLKNGNLATASTEKWEPTTWPTECRGVGFTEAPRGALGHWAAIRDGKIDLYQCVVPTTWNASPRDPKGQIGAYEAALMNTKMAIPEQPLEILRTLHSFDPCLACSTHVLGDDGSELISVQVR”, the “soluble on expression in E. coli” value is listed as “not soluble”.

As to “MSTSAGSSGAAASEPTTAKSLTYSETMNDLRKGSLFGRQKESLATTDGGPQPSSLDDKSQQFKNPIESDKPGPSTEPGRSAKIEQEAPAPTLKKSETPPAFGLSGVVKKVPSVYFPIFNKLGVKIPGFLPSLRETKINAPHIVYDVRRLRLLQKRQRPIKQLWLRLQFQLRFQMQLLKAQTKSSRVPDNASAVMWLHYIEVIEDHCTADC”, the “soluble on expression in E. coli” value is listed as “not soluble”.

“MSTSVKHREFVGEPMGDKEVTCIAGIGPTYGTKLTDAGFDKAYVLFGQYLLLKKDEDLFIEWLKETAGVTANHAKTAFNCLNEWADQFM”: the “soluble on expression in E. coli” value is reported as “not soluble”.

Consider “MSTSWRIRIMLTIHAKLVEAMLAQAHKDHPFEICGVIAGPEKSNLPLRLIPMRNAAQSETFFKFDPQEQLQVWREMEARGEEPIVIYHSHTHTPAYPSRTDVQYASQPQSHYVIVPTDPAYGEEIRSFRILDGMVTEERIRMINSYKAEWELSMEAMVALEHHHHHH”, for which the “soluble on expression in E. coli” value is on record as “soluble”.
